# Source: article PMC4310620
# B1: Csal_0679 (Chromohalobacter israelensis DSM 3043) (protein)
# chain: MTNTLALDDLKTRVESGEIDTVLVCIVDMQGRLMGKRLHARHFVDHGWEETHCCNYLLATDLEMATPGGYASTSWQAGYGDYIMKPDLATLRCVPWLEGTAMVLCDLLDHRTHAEVPHAPRAILKRQLARLEAMGLEAIMATELEFFLFEKSLDEIRKGRFRDLQPISGYNEDYHIFQTTKEEHVLRPLRNHLHAAGIPVEGTKGEAGAGQEELNIRCAKALDTADYHTIAKHATKEIAWQQGRAVTFLSKWHHAHAGSSSHIHQSLWKQGLPAFHDERDALGMSALMKHYLAGLLKYAPDYTYFLAPYLNSYKRFQKGTFAPTRTVWSVDNRTAGFRLCAEGTRAVRIECRIGGSDLNPYLAMAGQLAAGIKGIEECLALPPPAEGDTYEGGSGLIPQNLRDAMEALRGSTMLREAMGEDVVDHYVRAAEVELEDFQRVVSDYEVARGFERC
# What was measured:
# Assay in all cases: purified protein
# Format in all cases: biochemical, Chromohalobacter israelensis
# purified protein [1] = substrate: C[C@H](N)CO; details: 50 mM L-glutamate, 5 mM ATP, 15 mM MgCl2, pH 7.9, 25 °C
# purified protein [2] = substrate: N[C@@H](CCC(=O)O)C(=O)O; details: 20 mM ethanolamine, 5 mM ATP, 15 mM MgCl2, pH 7.9, 25 °C
# purified protein [3] = substrate: NCCO; details: 50 mM L-glutamate, 5 mM ATP, 15 mM MgCl2, pH 7.9, 25 °C
protein,measurement,setting,value
B1,Km,purified protein [1],100 ± 10 µM
same,kcat,purified protein [1],0.35 ± 0.01 s⁻¹
same,kcat/Km,purified protein [1],3400 M⁻¹ s⁻¹
same,Km,purified protein [2],7800 ± 1000 µM
same,kcat,purified protein [2],0.4 ± 0.02 s⁻¹
same,kcat/Km,purified protein [2],51 M⁻¹ s⁻¹
same,Km,purified protein [3],34 ± 4 µM
same,kcat,purified protein [3],0.38 ± 0.009 s⁻¹
same,kcat/Km,purified protein [3],11000 M⁻¹ s⁻¹
